The results in this text go back to patent publication US12123009B2, “Methods and compositions for PPO herbicide tolerance in plants” (Monsanto Technology LLC, priority 2015, dated 2024).

For orientation: IC50 means the concentration that gives 50% inhibition.

Assay [1] has as its system transgenic F1 maize expressing H_N10 (SEQ ID NO:4). The assay can be described thus: F1 maize greenhouse herbicide tolerance. In kind it is in vivo. As to conditions: 40 grams/ha, V3, seven days. The protocol:
The plants were treated with 40 grams/ha S-3100 at the V3 growth stage and injury ratings were taken seven days after treatment.

Assay [2] concerns leaf discs of soybean, non-transgenic or expressing H_N10 (SEQ ID NO: 4). The experiment in a line: Leaf disc assay, soybean. In kind it is in vivo. As to conditions: 1 micromolar. The protocol: (§1) A leaf-disc assay was employed for rapid and minimally damaging assessment of herbicide tolerance in transgenic plants expressing a recombinant PPO enzyme. Leaf tissue was sampled from the youngest fully-green leaf of corn and soybean plants. Five 4-mm diameter leaf discs were cut from the leaf samples using a disposable biopsy punch with a plunger (Integra® Miltex®, Inc., York. Pennsylvania) and the leaf discs were placed into one ml of incubation solution (1 mM MES, pH 6.5, 1% w/v sucrose, 1% (v/v) acetone) in 24-well polystyrene plates with lids. For herbicide tolerance analysis, S-3100 was added to the incubation solution to a final concentration of 1 micromolar. Vacuum infiltration was applied and plates of leaf discs were incubated in continuous darkness for one day at room temperature (23-24° C.) followed by one (soybean) or two (corn) days continuous light incubation under overhead fluorescent and incandescent bulbs (520 uE) at 26-27° C. Leaf disc injury was then scored visually on a scale from 0 (lowest injury) to 4 (highest injury), with lower scores indicating better tolerance to the PPO herbicide.

Assay [3] deals with leaf discs of transgenic maize expressing H_N10 (SEQ ID NO: 4). The assay can be described thus: Leaf disc assay, maize. Conditions: H_N10, construct 6; 1 micromolar. It is filed as in vivo. The protocol: as §1
Assay [4] concerns the target H_N60 (SEQ ID NO: 3), microbial HemG protoporphyrinogen oxidase. The assay can be described thus: PPO enzyme assay (bacterial extract). As to conditions: read-out: S-3100 IC50; 3 μM protogen; pH 7.4, 37° C.
A further assay deals with R0 soybean plants. The assay can be described thus: R0 transgenic soybean herbicide tolerance at eleven weeks. In kind it is in vivo. As to conditions: R0 plants sprayed with S-3100 at eleven weeks, rated seven days after treatment.

As for `CCOC(=O)COc1ncccc1Oc1cc(-n2c(=O)cc(C(F)(F)F)n(C)c2=O)c(F)cc1Cl` [S-3100, ethyl [3-2-chloro-4-fluoro-5-(1-methyl-6-trifluoromethyl-2,4-dioxo-1,2,3,4-tetrahydropyrimidin-3-yl)phenoxy]-2-pyridyloxylacetate], the “events producing highly tolerant plants (10% or less injury)” value in assay [1] (H_N10, construct 6, out of 18 events) was 13 events; in assay [1] (H_N10, construct 16), “no events”. Further, the “leaf disc injury rating (0 lowest to 4 highest injury)” value is “zero” in assay [2] (H_N10, construct 1); 1.6 in assay [2] (H_N10, construct 11); 2.6 in assay [2] (non-transgenic). In addition, the “average leaf disc score (0 lowest to 4 highest injury)” value in assay [3] came to 0.4. Also, in assay [4], the IC50 is greater than 100 µM.

B1: H_N90: microbial HemG protoporphyrinogen oxidase, SEQ ID NO:1 (SEQ ID NO:11 lacking start methionine; variants 18, 19) (protein, listed as Enterobacter cloacae)
chain: MKALVLYSTRDGQTHAIASYIASCMKEKAECDVIDLTHGEHVNLTQYDQVLIGASIRYGHFNAVLDKFIKRNVDQLNNMPSAFFCVNLTARKPEKRTPQTNPYVRKFLLATPWQPALCGVFAGALRYPRYRWIDKVMIQLIMRMTGGETDTSKEVEYTDWEQVKKFAEDFAKLSYKKAL
Consider B1, for which the percent injury score with R0 soybean plants (TP1) was 3%; with R0 soybean plants (TP9) it was 30%; in the assay with R0 soybean plants (TP10), 30%; in the assay with R0 soybean plants (TP11), 30%; in the assay on R0 soybean plants (TP12), 30%; in the assay on R0 soybean plants (TP13), 15%. The percent injury score in the assay with R0 soybean plants (TP14) was 25%; in the assay with R0 soybean plants (TP15), 35%; in the assay on R0 soybean plants (TP16), 35%; with R0 soybean plants (TP17), 15%; in the assay on R0 soybean plants (TP18), 30%; in the assay with R0 soybean plants (TP20) it was 5%. Moreover, the percent injury score with R0 soybean plants (TP21) is on record as 25%; in the assay on R0 soybean plants (TP22) it was 30%; in the assay with R0 soybean plants (TP23), 30%; in the assay on R0 soybean plants (TP26), 40%; in the assay with R0 soybean plants (TP27), 35%; in the assay with R0 soybean plants (TP28) it was 30%. In addition, the percent injury score with R0 soybean plants (TP32) is 50%; in the assay on R0 soybean plants (TP33), 25%; in the assay on R0 soybean plants (TP34), 35%; with R0 soybean plants (TP35), 15%; in the assay with R0 soybean plants (TP36), 15%.
